Reference: patent US20220259295A1 (INSERM INSTITUT NATIONAL DE LA SANT ET DE LA RECHERCHE M …, published 2022)
Like-named read-outs stand apart in the source and are kept apart here.

T1: PN-1 released from TRAP-activated platelets (Homo sapiens (Human), UniProt P07093 20-398)
T1 sequence: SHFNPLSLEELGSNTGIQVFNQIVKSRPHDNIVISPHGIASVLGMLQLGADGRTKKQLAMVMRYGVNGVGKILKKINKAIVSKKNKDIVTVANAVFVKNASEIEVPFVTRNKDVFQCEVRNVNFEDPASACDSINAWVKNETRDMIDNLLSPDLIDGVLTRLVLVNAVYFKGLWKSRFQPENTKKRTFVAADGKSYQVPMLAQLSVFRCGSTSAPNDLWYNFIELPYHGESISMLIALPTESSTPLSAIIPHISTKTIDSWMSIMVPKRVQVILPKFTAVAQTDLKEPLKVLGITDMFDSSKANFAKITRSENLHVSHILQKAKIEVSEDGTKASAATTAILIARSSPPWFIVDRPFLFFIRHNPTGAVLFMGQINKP

T2: human protease nexin-1 (human, UniProt P07093 20-398)
T2 sequence (looked up): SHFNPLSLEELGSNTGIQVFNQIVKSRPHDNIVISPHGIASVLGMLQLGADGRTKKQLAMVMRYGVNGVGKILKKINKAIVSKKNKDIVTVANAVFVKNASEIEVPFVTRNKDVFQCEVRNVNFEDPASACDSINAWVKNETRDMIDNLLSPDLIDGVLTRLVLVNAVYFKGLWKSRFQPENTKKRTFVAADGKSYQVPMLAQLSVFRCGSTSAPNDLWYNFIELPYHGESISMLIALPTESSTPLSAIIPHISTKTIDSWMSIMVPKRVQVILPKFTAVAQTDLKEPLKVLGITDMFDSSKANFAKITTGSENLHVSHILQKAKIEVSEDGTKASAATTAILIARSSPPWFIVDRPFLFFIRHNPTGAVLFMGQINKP

T3: murine protease nexin-1 (murine, UniProt Q07235 20-397)
T3 sequence (looked up): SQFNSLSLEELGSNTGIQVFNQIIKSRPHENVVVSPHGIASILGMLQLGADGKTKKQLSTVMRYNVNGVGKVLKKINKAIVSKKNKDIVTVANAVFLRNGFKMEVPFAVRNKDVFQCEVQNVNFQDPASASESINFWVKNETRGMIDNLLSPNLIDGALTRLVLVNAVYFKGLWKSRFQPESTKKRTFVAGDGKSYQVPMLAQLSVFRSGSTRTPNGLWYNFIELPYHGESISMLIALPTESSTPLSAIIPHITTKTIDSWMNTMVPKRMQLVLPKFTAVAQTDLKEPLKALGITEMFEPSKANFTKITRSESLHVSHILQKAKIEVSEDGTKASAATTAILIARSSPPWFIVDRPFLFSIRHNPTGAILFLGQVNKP

T4: murine protease nexin-1 (murine, UniProt Q07235 20-397)
T4 chain: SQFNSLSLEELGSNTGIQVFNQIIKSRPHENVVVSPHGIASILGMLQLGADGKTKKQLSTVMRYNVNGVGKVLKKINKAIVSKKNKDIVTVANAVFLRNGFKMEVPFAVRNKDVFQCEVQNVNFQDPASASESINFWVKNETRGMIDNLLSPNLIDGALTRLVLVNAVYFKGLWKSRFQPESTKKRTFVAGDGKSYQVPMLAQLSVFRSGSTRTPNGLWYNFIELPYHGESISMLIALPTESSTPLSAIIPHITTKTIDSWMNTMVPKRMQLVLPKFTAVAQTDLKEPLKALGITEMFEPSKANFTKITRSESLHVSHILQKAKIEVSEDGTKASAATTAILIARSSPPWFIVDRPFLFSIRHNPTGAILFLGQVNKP

T5: human protease nexin-1 (human, UniProt P07093 20-398)
T5 chain: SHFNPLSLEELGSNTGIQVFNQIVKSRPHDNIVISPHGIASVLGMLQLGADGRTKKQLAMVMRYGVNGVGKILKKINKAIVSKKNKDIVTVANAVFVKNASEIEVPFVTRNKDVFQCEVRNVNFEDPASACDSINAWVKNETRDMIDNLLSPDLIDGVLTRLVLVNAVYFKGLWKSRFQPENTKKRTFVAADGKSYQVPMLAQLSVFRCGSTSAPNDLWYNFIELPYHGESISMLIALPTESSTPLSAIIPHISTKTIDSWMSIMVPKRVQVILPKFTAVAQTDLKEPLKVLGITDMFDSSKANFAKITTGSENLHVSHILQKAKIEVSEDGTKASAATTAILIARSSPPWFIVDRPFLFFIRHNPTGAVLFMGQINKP

T6: murine plasminogen activator inhibitor-1 (murine, UniProt P22777 23-402)
T6 construct: also called mPAI-1; murine PAI-1
T6 sequence (looked up): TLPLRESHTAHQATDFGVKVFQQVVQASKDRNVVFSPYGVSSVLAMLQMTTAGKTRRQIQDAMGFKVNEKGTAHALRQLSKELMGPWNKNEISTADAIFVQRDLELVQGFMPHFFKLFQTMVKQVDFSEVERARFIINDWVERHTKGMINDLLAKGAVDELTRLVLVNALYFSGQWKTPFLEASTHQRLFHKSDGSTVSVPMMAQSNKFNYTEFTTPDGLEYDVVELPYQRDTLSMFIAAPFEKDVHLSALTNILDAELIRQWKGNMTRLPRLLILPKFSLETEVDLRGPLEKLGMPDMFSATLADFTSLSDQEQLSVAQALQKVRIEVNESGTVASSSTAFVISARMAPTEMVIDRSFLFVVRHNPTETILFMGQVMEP


Legend:
[1] = molecular target: T1, PN-1 released from TRAP-activated …; assay: cell-based or functional assay
human protease nexin-1 [2] = molecular target: T2, human protease nexin-1; assay: cell-based or functional assay
murine protease nexin-1 [3] = molecular target: T3, murine protease nexin-1; assay: cell-based or functional assay
[4] = molecular target: T7, human plasminogen activator inhibitor-1 (human, UniProt P05121 24-402); assay: specificity test of Example 1 (refers to FIG. 2E-G)
T7 construct: also called hPAI-1; human PAI-1

murine protease nexin-1 [5] = molecular target: T4, murine protease nexin-1; assay: inhibition of PN-1 activity (residual thrombin activity, chromogenic substrate)
human protease nexin-1 [6] = molecular target: T5, human protease nexin-1; assay: as above
murine protease nexin-1 [7] = molecular target: T4, murine protease nexin-1; assay: as above
human protease nexin-1 [8] = molecular target: T5, human protease nexin-1; assay: as above
[9] = molecular target: T6, murine plasminogen activator inhibitor-1; assay: ELISA, PAI-1 captured on anti-PAI-1 mAb, anti-6xHis detection
[10] = molecular target: T7, human plasminogen activator inhibitor-1; assay: non-adsorbed phage ELISA, phage on coated hPAI-1, anti-M13 detection
[11] = molecular target: T7, human plasminogen activator inhibitor-1; assay: ELISA, PAI-1 captured on anti-PAI-1 mAb, anti-6xHis detection

T7 sequence (P05121 24-402 limits assumed): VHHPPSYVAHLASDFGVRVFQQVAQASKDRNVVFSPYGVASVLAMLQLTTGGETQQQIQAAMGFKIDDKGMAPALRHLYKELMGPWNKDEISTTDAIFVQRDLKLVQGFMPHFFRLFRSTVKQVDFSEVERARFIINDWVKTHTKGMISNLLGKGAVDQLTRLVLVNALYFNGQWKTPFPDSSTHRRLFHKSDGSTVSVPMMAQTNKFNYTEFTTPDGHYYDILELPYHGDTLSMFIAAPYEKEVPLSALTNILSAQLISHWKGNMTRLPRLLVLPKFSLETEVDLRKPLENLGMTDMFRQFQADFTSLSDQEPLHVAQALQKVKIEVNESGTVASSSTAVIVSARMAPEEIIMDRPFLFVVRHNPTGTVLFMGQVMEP

Row | Binder | thrombin activity restored (supernatant of TRAP-activated platelets, 0.1 nM thrombin, 1 µM bivalent VHH) [1] | IC50 (thrombin activity assay, 10 nM PN-1, 1 nM thrombin) (human protease nexin-1 [2]) | IC50 (thrombin activity assay, 10 nM PN-1, 1 nM thrombin) (murine protease nexin-1 [3]) | modified prothrombin time (PT), murine plasma with 62.5 nM mPN-1 and 288 nM bivalent VHH (murine protease nexin-1 [3]) | binding result [4] | IC50 (murine protease nexin-1 [5]) | IC50 (human protease nexin-1 [6]) | recovery of thrombin activity (percentage of thrombin alone; 1 nM thrombin, 10 nM PN-1, 10 µM VHH) (human protease nexin-1 [2]) | recovery of thrombin activity (percentage of thrombin alone; 1 nM thrombin, 10 nM PN-1, 10 µM VHH) (murine protease nexin-1 [3]) | IC50 (murine protease nexin-1 [7]) | IC50 (human protease nexin-1 [8]) | binding result [9] | binding result [10] | binding result [11]
1 | B11-F06 (VHH, Bivalent (biparatopic) tandem B11-linker-F06; also called bivalent hybribody B11-F06; bivalent VHH B11F06) EVQLQASGGGFVQPGGSLRLSCAASGSTWFREIMGWFRQAPGKEREFVSAISSDPTWHAYYADSVKGRFTISRDNSKNTVYLQMNSLRAEDTATYYCAPLAGTESIHWWDPWHESSYWGQGTQVTVSSGGGSGGGSGGGSGGGSEVQLQASGGGFVQPGGSLRLSCAASGDTWSLEIMGWFRQAPGKEREFVSAISSEDGWHAYYADSVKGRFTISRDNSKNTVYLQMNSLRAEDTATYYCAKIENWIQAVEGEMSDYWGQGTQVTVSSHHHHHH | 88% | 62 nM | 414 nM | 83.3 s | no binding | 254 nM | 68 nM |  |  |  |  |  |  | 
2 | A08 (VHH, Monovalent VHH from the synthetic hs2dAb library; His-tagged, detected by anti-cMyc or anti-6xHis; also called VHH A08; single domain antibody A08; not shown: cMyc tag and 6xHis tag (pHEN2 vector)) VHH: EVQLQASGGGFVQPGGSLRLSCAASGYYSYSSTMGWFRQAPGKEREFVSAISFYSDMAHYYADSVKGRFTISRDNSKNTVYLQMNSLRAEDTATYYCAAFSKLGKIKYWGQGTQVTVSS |  | 960 nM | 2880 nM |  |  |  |  | 100% | 94% | 3540 nM | 1170 nM | no binding (tested: 10 µg/mL) | no binding | 
3 | B11-Bv (VHH, Bivalent (monoparatopic) tandem of two B11 VHHs; also called bivalent hybribody B11-Bv; bivalent VHH B11bv) EVQLQASGGGFVQPGGSLRLSCAASGSTWFREIMGWFRQAPGKEREFVSAISSDPTWHAYYADSVKGRFTISRDNSKNTVYLQMNSLRAEDTATYYCAPLAGTESIHWWDPWHESSYWGQGTQVTVSSAAAEVQLQASGGGFVQPGGSLRLSCAASGSTWFREIMGWFRQAPGKEREFVSAISSDPTWHAYYADSVKGRFTISRDNSKNTVYLQMNSLRAEDTATYYCAPLAGTESIHWWDPWHESSYWGQGTQVTVSSHHHHHH | 97% | 41 nM | 825 nM | 83.5 s | no binding | 509 nM | 40 nM |  |  |  |  |  |  | 
4 | B11-A08 (VHH, Bivalent (biparatopic) tandem B11-linker-A08; also called bivalent hybribody B11-A08; bivalent VHH B11A08) EVQLQASGGGFVQPGGSLRLSCAASGSTWFREIMGWFRQAPGKEREFVSAISSDPTWHAYYADSVKGRFTISRDNSKNTVYLQMNSLRAEDTATYYCAPLAGTESIHWWDPWHESSYWGQGTQVTVSSGGGSGGGSGGGSGGGSEVQLQASGGGFVQPGGSLRLSCAASGYYSYSSTMGWFRQAPGKEREFVSAISFYSDMAHYYADSVKGRFTISRDNSKNTVYLQMNSLRAEDTATYYCAAFSKLGKIKYWGQGTQVTVSSHHHHHH | 100% | 142 nM | 524 nM | 93.2 s | no binding | 395 nM | 139 nM |  |  |  |  |  |  | 
5 | B11 (VHH, Monovalent VHH from the synthetic hs2dAb library, made in E. coli WK6, purified by its His tag, detected by anti-cMyc or anti-6xHis; also called VHH B11; BI 1; not shown: cMyc tag and 6xHis tag (pHEN2 vector)) VHH: EVQLQASGGGFVQPGGSLRLSCAASGSTWFREIMGWFRQAPGKEREFVSAISSDPTWHAYYADSVKGRFTISRDNSKNTVYLQMNSLRAEDTATYYCAPLAGTESIHWWDPWHESSYWGQGTQVTVSS |  | 50 nM | 1580 nM |  | no binding |  |  | 100% | 92% | 1270 nM | 60 nM | no binding (tested: 10 µg/mL) |  | 
6 | F06 (VHH, Monovalent VHH from the synthetic hs2dAb library; His-tagged, detected by anti-cMyc or anti-6xHis; also called VHH F06; single domain antibody F06; not shown: cMyc tag and 6xHis tag (pHEN2 vector)) VHH: EVQLQASGGGFVQPGGSLRLSCAASGDTWSLEIMGWFRQAPGKEREFVSAISSEDGWHAYYADSVKGRFTISRDNSKNTVYLQMNSLRAEDTATYYCAKIENWIQAVEGEMSDYWGQGTQVTVSS |  | 290 nM | 560 nM |  |  |  |  | 100% | 96% | 670 nM | 230 nM | no binding (tested: 10 µg/mL) |  | no binding (tested: 10 µg/mL)
